Consider ten molecules from publication PMC3381513.

Read-outs that look alike come from different tables or passages of the source.

The target of series [1] is T1, CUGBP1 RRM1/2 (human, UniProt Q92879 14-187). Nature of the series: filter binding.
Series [2] deals with T1, CUGBP1 RRM1/2. Nature of the series: crystal structure.
Series [3] concerns the target T1, CUGBP1 RRM1/2. Nature of the series: filter binding. This is another data set of the same source.
The target of another series is CUGBP1 RRM2 (ITC) (human, UniProt Q92879 109-187). Nature of the series: ITC.
The target of another series is CUGBP1 RRM1 (ITC) (human, UniProt Q92879 16-99). Description: ITC.
In series [4] the target is T1, CUGBP1 RRM1/2. Nature of the series: EMSA.
Series [5] addresses T1, CUGBP1 RRM1/2. Nature of the series: filter binding. This is another data set of the same source.

T1 sequence (Q92879 14-187): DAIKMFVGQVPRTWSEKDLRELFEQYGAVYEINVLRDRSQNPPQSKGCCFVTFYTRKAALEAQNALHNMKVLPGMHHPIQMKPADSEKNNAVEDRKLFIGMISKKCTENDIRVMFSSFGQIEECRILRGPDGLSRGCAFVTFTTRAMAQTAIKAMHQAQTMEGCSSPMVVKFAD
Chain of CUGBP1 RRM1 (ITC) (Q92879 16-99): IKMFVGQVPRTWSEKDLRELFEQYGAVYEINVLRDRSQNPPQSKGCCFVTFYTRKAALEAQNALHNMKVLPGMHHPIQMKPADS
Chain of CUGBP1 RRM2 (ITC) (Q92879 109-187): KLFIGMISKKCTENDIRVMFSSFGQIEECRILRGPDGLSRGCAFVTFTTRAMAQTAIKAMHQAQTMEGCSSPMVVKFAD

GUUGUUUUUAUU (ssRNA) [G4A10]: the binding signal in the series with CUGBP1 RRM1/2 [1] was 2.5 fold reduction in binding vs N2.
On to GUUGUUUUUGUU (ssRNA, U8 = 5-bromouridine) [BrU8 sequence 2], for which the binding result with CUGBP1 RRM1/2 [2] is on record as “binds”.
On the same count and under the same terms, as for GUUGUUUUUGUU (ssRNA, U2 = 5-bromouridine) [BrU2 sequence 2], the entry is “binds”.
Take GUUGCUUUUGCU (ssRNA) [C5C11]: the binding signal with CUGBP1 RRM1/2 [3] is ~5 fold loss in affinity vs N2.
As to UUGUU (ssRNA) [UUGUU 5-nt], the dissociation constant Kd is 45 µM in the series with CUGBP1 RRM2 (ITC) and 29 µM with CUGBP1 RRM1 (ITC).
In the case of UGUGUGUUGUGUG (ssRNA) [sequence 3, 13-mer], the binding result with CUGBP1 RRM1/2 [4] was “binds”.
Regarding GUUUUUUUUUUU (ssRNA) [U4U10], the binding result with CUGBP1 RRM1/2 [5] was “no binding”.
The same measure, in the same setting: to GUUAUUUUUAUU (ssRNA) [A4A10] belongs “no binding”; to GUUCUUUUUCUU (ssRNA) [C4C10], “no binding”.
Turning to GUUAUUUUUGUU (ssRNA) [A4G10], the binding signal with CUGBP1 RRM1/2 [1] is 4.4 fold reduction in binding vs N2.
